The values below come from patent US20110129459A1 (Chugai, published 2011).

Changes are numbered by the printed parent chain. Read-outs that look alike come from different tables or passages of the source.

The target of test [1] is T1, rhNR10 (recombinant human NR10) (human, UniProt Q8NI17 20-519, limits assumed).
T1 construct: also called IL-31 receptor; IL31RA
T1 sequence: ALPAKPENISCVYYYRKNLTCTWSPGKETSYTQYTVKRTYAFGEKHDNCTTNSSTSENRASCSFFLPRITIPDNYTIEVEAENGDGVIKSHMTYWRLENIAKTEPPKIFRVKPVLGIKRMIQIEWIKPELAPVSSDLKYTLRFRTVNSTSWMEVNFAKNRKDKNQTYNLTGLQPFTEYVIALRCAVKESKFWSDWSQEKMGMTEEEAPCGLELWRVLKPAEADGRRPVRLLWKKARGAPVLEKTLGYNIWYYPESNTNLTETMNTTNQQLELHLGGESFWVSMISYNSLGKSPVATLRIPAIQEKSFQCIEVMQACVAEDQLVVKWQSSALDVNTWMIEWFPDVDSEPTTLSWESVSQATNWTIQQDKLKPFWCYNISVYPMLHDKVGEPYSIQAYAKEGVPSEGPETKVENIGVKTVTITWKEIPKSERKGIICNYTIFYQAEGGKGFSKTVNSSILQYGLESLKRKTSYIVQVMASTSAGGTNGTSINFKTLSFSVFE
In words: SPR, Biacore T100; antibody captured on Protein A, rhNR10 as analyte. As to the method:
(§1) Kinetic analysis of the antigen-antibody reaction was carried out using Biacore T100 (GE Healthcare Biosciences). The antigen-antibody interaction was measured by immobilizing rec-Protein A (hereinafter Protein A) (ZYMED) onto a sensor chip, capturing an antibody on the immobilized Protein A, and then reacting the antigen as an analyte. Various concentrations of rhNR10 were used as the antigen. The kinetic parameters, association rate constant kₐ (1/Ms) and dissociation rate constant kd (1/s), were calculated from the sensorgrams obtained by the measurement. Then, KD (M) was determined based on the rate constants. Each parameter was determined using Biacore T100 Evaluation Software version 1.1 (GE Healthcare Biosciences).
(§2) The running buffer used was HBS-EP+. Each antibody was prepared at 0.25 μg/ml, or prepared so that about 100 RU would bind to Protein A. rhNR10 used as an analyte was prepared at 0, 38.5, 77.0, and 154 nM, or at 0, 19.25, and 77.01 nM using HBS-EP+. In the measurement, first, the antibody solution was captured on Protein A, and an analyte solution was reacted at a flow rate of 20 μL/min for three minutes. Then, the solution was switched to HBS-EP+, and the dissociation phase was measured for five minutes. After measurement of the dissociation phase, the sensor chip was regenerated by washing with 10 mM glycine-HCl (pH 1.5). The obtained sensorgrams were kinetically analyzed using the Biacore-specific data analysis software, Biacore T100 Evaluation Software Version 1.1.

Test [2] has as its target T1, rhNR10 (recombinant human NR10). The description is as above. On the procedure: as §1, §2
The source holds these as a separate data set.

The target is the same in test [3]. The test is described as above. As to the method: as §1, §2
This is another data set of the same source.

Test [4] has the same target. Described as above. On the procedure: as §1, §2
This is another data set of the same source.

For test [5] the target is unchanged. The test is described as above. On the procedure: as §1, §2
The source holds these as a separate data set.

The target in test [6] is T2, soluble human FcRn (FcRn extracellular domain / beta2-microglobulin complex) (human, UniProt P55899 24-290; P61769 21-119).
T2 construct: The expression constructs contain the signal regions (FcRn Met1-Leu290; beta2-microglobulin Met1-Met119); also called hFcRn
The test is described as follows: SPR, Biacore 3000; antibody captured on chip, soluble human FcRn as analyte, steady state affinity, pH 6.0. As to the method:
The binding to human FcRn was assessed using Biacore 3000. An antibody was bound to Protein L or rabbit anti-human IgG Kappa chain antibody immobilized onto a sensor chip, human FcRn was added as an analyte for interaction with the antibody, and the affinity (KD) was calculated from the amount of bound human FcRn. Specifically, Protein L was immobilized onto sensor chip CM5 (BIACORE) by the amine coupling method using 50 mM Na-phosphate buffer (pH 6.0) containing 150 mM NaCl as the running buffer. Then, an antibody was diluted with the running buffer containing 0.02% Tween20, and injected and allowed to bind to the chip. Human FcRn was then injected to assess the binding activity of the antibody to the human FcRn.
The affinity was calculated using BIAevaluation software. The obtained sensorgram was used to calculate the amount of hFcRn bound to the antibody immediately before the end of human FcRn injection. This was fitted by the steady state affinity method to calculate the affinity of human FcRn for the antibody.

T2 sequence (P55899 24-290 limits assumed, chain 1 of 2): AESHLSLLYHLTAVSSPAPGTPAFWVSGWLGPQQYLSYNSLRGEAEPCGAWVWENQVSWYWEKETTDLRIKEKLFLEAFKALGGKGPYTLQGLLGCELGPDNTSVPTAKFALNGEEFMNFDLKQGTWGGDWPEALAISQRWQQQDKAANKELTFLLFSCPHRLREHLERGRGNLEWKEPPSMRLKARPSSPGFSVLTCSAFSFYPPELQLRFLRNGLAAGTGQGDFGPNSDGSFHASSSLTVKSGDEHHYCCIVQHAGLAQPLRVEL
T2 sequence (P61769 21-119 limits assumed, chain 2 of 2): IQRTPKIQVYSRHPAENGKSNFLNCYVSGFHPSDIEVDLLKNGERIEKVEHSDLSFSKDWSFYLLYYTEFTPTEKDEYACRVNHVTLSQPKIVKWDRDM

B1: Ha401La402 (Ha401-SKSC / La402) (antibody, V domains shown)
VH: QVQLVQSGAEVKKPGASVKVSCKASGYTFTGYVINWVRQAPGQGLEWMGLINPYNGGTDYNQKFKGRVTITADESTSTAYMELSSLRSEDTAVYYCARDGYDDGPYTMDYWGQGTLVTVSS
VL: DIQMTQSPSSLSASVGDRVTITCQTSENIYRFVAWYQQKPGKAPKLLIYNAKTLAKGVPSRFSGSGSGTDFTLTISSLQPEDFATYYCQHHYDSPLTFGGGTKVEIKR
As for B1, in test [1], the Kd is 0.5 nM, the koff is 0.00029 s⁻¹ and the kon is 580000 M⁻¹ s⁻¹.

B2: H19L12 (H19-M58 / L12) (antibody, V domains shown)
VH: B1 VH with V33A, I34M, Q62P, K63Q, K65Q, G66D
VL: B1 VL with N28D, R31S, K52Q, L54E, K56Q
Turning to B2, in test [2], the Kd turned out to be 5.1 nM, the koff turned out to be 0.0012 s⁻¹ and the kon was found to be 230000 M⁻¹ s⁻¹.

B3: H0L12 (H0-M58 / L12) (antibody, V domains shown)
VH: B1 VH with V33I, I34M, D59S
VL: B1 VL with N28D, R31S, K52Q, L54E, K56Q
Turning to B3, the “fold affinity relative to H0L0” value in test [2] was approximately 2 fold. Further, in test [3], the dissociation constant Kd stood at 2 nM, the koff was found to be 0.00074 s⁻¹ and the kon turned out to be 380000 M⁻¹ s⁻¹.

B4: H17L11 (H17-M58 / L11) (antibody, V domains shown)
VH: B1 VH with I34L, Q62P, K63Q, K65Q, G66D
VL: B1 VL with N28D, K52Q, L54E, K56Q
Turning to B4, in test [4], the Kd amounted to 0.62 nM, the koff was determined as 0.00026 s⁻¹ and the kon was determined as 430000 M⁻¹ s⁻¹.

B5: H0L17 (H0-M58 / L17) (antibody, V domains shown)
VH: B1 VH with V33I, I34M, D59S
VL: B1 VL with T25A, N28D, R31S, K52Q, L54E, K56Q
Consider B5, for which, in test [3], the Kd is 2.1 nM, the koff was determined as 0.00081 s⁻¹ and the kon turned out to be 390000 M⁻¹ s⁻¹.

B6: Hp3Lp15 (Hp3-SKSC / Lp15) (antibody, V domains shown)
VH: B1 VH with V33I, I34M, D59S, K63Q, K65Q, G66D
VL: B1 VL with N28D, R31S, V33L, K52Q, L54E, K56Q, D93E
notes: also called Hp3Lp15-SKSC
As for B6, in test [2], the Kd was 3.9 nM, the koff was 0.0016 s⁻¹ and the kon was 420000 M⁻¹ s⁻¹.

B7: H0L0-M58 (antibody)
heavy: QVQLVQSGAEVKKPGASVKVSCKASGYTFTGYIMNWVRQAPGQGLEWMGLINPYNGGTSYNQKFKGRVTITADESTSTAYMELSSLRSEDTAVYYCARDGYDDGPYTMDYWGQGTLVTVSSASTKGPSVFPLAPSSKSTSGGTAALGCLVKDYFPEPVTVSWNSGALTSGVHTFPAVLQSSGLYSLSSVVTVPSSNFGTQTYTCNVDHKPSNTKVDKTVERKSCVECPPCPAPPVAGPSVFLFPPKPKDTLMISRTPEVTCVVVDVSQEDPEVQFNWYVDGVEVHNAKTKPREEQFNSTFRVVSVLTVVHQDWLNGKEYKCKVSNKGLPAPIEKTISKTKGQPREPQVYTLPPSQEEMTKNQVSLTCLVKGFYPSDIAVEWESNGQPENNYKTTPPMLDSDGSFFLYSKLTVDKSRWQEGNVFSCSVMHEALHNHYTQKSLSLSP
light: DIQMTQSPSSLSASVGDRVTITCRTSENIYSFLAWYQQKPGKAPKLLIYNAKTLAKGVPSRFSGSGSGTDFTLTISSLQPEDFATYYCQHHYESPLTFGGGTKVEIKRTVAAPSVFIFPPSDEQLKSGTASVVCLLNNFYPREAKVQWKVDNALQSGNSQESVTEQDSKDSTYSLSSTLTLSKADYEKHKVYACEVTHQGLSSPVTKSFNRGEC
notes: also called H0L0 (H chain, H0-M58)
Consider B7, for which the Kd is 4.8 nM in test [4]; 4.8 nM in test [2]; 4.8 nM in test [3]; 4.2 nM in test [5]; 910 nM in test [6]. The koff in test [4] was 0.00069 s⁻¹; in test [2], 0.00087 s⁻¹; in test [3], 0.00078 s⁻¹; in test [5], 0.00088 s⁻¹. Further, the kon in test [4] is 140000 M⁻¹ s⁻¹; in test [2], 180000 M⁻¹ s⁻¹; in test [3], 160000 M⁻¹ s⁻¹; in test [5], 210000 M⁻¹ s⁻¹.

B8: H0L0-IgG1 (antibody)
heavy: not shown
light: B7 light
Consider B8, for which the Kd in test [6] was 1070 nM.

B9: huPM1-M58 (humanized anti-IL-6 receptor antibody with constant region M58) (antibody)
heavy: QVQLQESGPGLVRPSQTLSLTCTVSGYSITSDHAWSWVRQPPGRGLEWIGYISYSGITTYNPSLKSRVTMLRDTSKNQFSLRLSSVTAADTAVYYCARSLARTTAMDYWGQGSLVTVSSASTKGPSVFPLAPSSKSTSGGTAALGCLVKDYFPEPVTVSWNSGALTSGVHTFPAVLQSSGLYSLSSVVTVPSSNFGTQTYTCNVDHKPSNTKVDKTVERKSCVECPPCPAPPVAGPSVFLFPPKPKDTLMISRTPEVTCVVVDVSQEDPEVQFNWYVDGVEVHNAKTKPREEQFNSTFRVVSVLTVVHQDWLNGKEYKCKVSNKGLPAPIEKTISKTKGQPREPQVYTLPPSQEEMTKNQVSLTCLVKGFYPSDIAVEWESNGQPENNYKTTPPMLDSDGSFFLYSKLTVDKSRWQEGNVFSCSVMHEALHNHYTQKSLSLSP
light: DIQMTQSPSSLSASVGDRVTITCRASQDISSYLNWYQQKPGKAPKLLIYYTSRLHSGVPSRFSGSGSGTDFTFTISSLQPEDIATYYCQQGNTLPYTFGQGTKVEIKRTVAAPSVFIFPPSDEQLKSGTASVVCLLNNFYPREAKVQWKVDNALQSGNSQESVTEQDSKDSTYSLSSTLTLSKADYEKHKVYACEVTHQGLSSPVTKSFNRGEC
In the case of B9, in test [6], binding was characterised by a dissociation constant (Kd) of 1170 nM and the “fold binding activity relative to huPM1-IgG1” value is approximately 1.4 fold.
